Data reported in publication PMC3365889.

How the values were obtained:
[1] = target: T1, human synaptogyrin 1, transcript variant 1b, construct 5 (N-terminal His tag with TEV cleavage site) (human), O43759; test: cross-linking; Triton X-100-solubilised and purified synaptogyrin 1, 1 mM glutaraldehyde, room temperature, quenched with 200 mM Tris at time points; SDS-PAGE and Western blot with His probe
T1 chain: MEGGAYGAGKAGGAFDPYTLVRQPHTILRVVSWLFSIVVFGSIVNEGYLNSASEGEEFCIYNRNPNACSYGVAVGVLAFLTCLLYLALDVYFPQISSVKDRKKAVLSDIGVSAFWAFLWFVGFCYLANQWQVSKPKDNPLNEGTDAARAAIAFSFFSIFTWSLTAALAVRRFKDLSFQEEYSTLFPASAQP

[2] = target: T1, human synaptogyrin 1, transcript …; test: SDS-PAGE (SDS-resistant dimer); SDS-PAGE of fractions from the large-scale IMAC purification in DDM
[3] = target: T1, human synaptogyrin 1, transcript …; test: cross-linking; crude E. coli membranes, 2 mM DMS, room temperature, quenched with 200 mM Tris at time points; SDS-PAGE and Western blot with His probe
[4] = target: T1, human synaptogyrin 1, transcript …; test: cross-linking; DDM-solubilised and purified synaptogyrin 1, 0.25 mM DSS, room temperature, quenched with 200 mM Tris at time points; SDS-PAGE and Western blot with His probe

B1: human synaptogyrin 1, transcript variant 1b, construct 5 (N-terminal His tag with TEV cleavage site), O43759-2 1-191 (natural protein)
chain: T1 chain
- stoichiometry N [1]: > 4
- stoichiometry N [2]: 2
- stoichiometry N [3]: > 4
- stoichiometry N [4]: > 4
